One assay concerns the target HLA-B*07:02. Description: IEDB peptide-MHC binding, purified MHC/direct/fluorescence; filed as Kd, often an IC50 or EC50 that approximates it; ≥ and ≤ were set here for values at or beyond the usual limits of such assays.
The target of a further assay is HLA-B*51:01. The description is as above. The conditions noted are these: source organism: Escherichia coli O157:H7.
A further assay has as its target HLA-C*08:02. Described as above. The conditions noted are these: source organism: Escherichia coli HS.
The next assay deals with HLA-C*15:02. The description is as above. The conditions noted are these: source organism: Escherichia coli HS.
Another assay deals with HLA-B*15:42. Description: IEDB peptide-MHC binding, purified MHC/competitive/fluorescence; filed as Kd, often an IC50 or EC50 that approximates it; ≥ and ≤ were set here for values at or beyond the usual limits of such assays.
A further assay has as its target HLA-B*45:06. The assay is described as above.
Another assay concerns the target HLA-B*83:01. The description is as above.
Assay [1] addresses HLA-C*06:02. The assay is described as above. Conditions: source organism: Escherichia coli HS.
In the next assay the target is HLA-C*14:02. The assay is described as above. The conditions noted are these: source organism: Escherichia coli HS.
Another assay concerns the target HLA-B*27:20. Described as above.
The target of another assay is HLA-B*15:01. Description: IEDB peptide-MHC binding, purified MHC/direct/fluorescence; filed as Kd, often an IC50 or EC50 that approximates it; ≥ and ≤ were set here for values at or beyond the usual limits of such assays.
The next assay deals with HLA-B*15:02. The assay is described as above.
For another assay, the target named is HLA-B*46:01. Described as above.
The next assay has as its target HLA-B*27:05. The assay is described as above.
Another assay deals with HLA-B*48:01. The description is as above. Conditions: source organism: Brucella abortus 2308.
Assay [2] has as its target HLA-B*73:01. Described as above. The conditions noted are these: source organism: Brucella suis 1330.
For another assay, the target named is HLA-A*01:01. Described as above.
The target in a further assay is HLA-A*02:01. The assay is described as above.
In a further assay the target is HLA-A*03:01. The description is as above.
For a further assay, the target named is HLA-A*11:01. The description is as above.
A further assay deals with HLA-A*24:03. Described as above. Conditions: source organism: Cryptosporidium parvum.
Another assay deals with HLA-A*26:01. The description is as above.
A further assay has as its target HLA-A*31:01. Described as above.
The target of a further assay is HLA-A*69:01. The assay is described as above.
For the next assay, the target named is HLA-B*08:01. The description is as above. Conditions: source organism: Cryptosporidium parvum.
Another assay has as its target HLA-B*35:01. The assay is described as above.
For assay [3], the target named is HLA-B*40:01. The assay is described as above.
For the next assay, the target named is HLA-B*44:02. The assay is described as above.
The next assay has as its target HLA-B*58:01. Described as above.
The next assay deals with HLA-A*02:50. In words: IEDB peptide-MHC binding, purified MHC/competitive/fluorescence; filed as Kd, often an IC50 or EC50 that approximates it; ≥ and ≤ were set here for values at or beyond the usual limits of such assays. Conditions: source organism: Cryptosporidium parvum.
Assay [4] has as its target HLA-B*73:01. Described as above.
For a further assay, the target named is HLA-A*02:19. In words: IEDB peptide-MHC binding, purified MHC/direct/fluorescence; filed as Kd, often an IC50 or EC50 that approximates it; ≥ and ≤ were set here for values at or beyond the usual limits of such assays. The conditions noted are these: source organism: Yersinia enterocolitica subsp. enterocolitica 8081.
In assay [5] the target is HLA-C*06:02. The description is as above. The conditions noted are these: source organism: Escherichia coli O157:H7 str. EDL933.
In another assay the target is HLA-B*39:01. In words: IEDB peptide-MHC binding, purified MHC/competitive/fluorescence; filed as Kd, often an IC50 or EC50 that approximates it; ≥ and ≤ were set here for values at or beyond the usual limits of such assays. Conditions: source organism: Salmonella enterica subsp. enterica serovar Paratyphi B str. SPB7.
For assay [6], the target named is HLA-B*40:01. The assay is described as above. Conditions: source organism: Salmonella enterica subsp. enterica serovar Paratyphi B str. SPB7.
Where [7] appears, read: source organism: Escherichia coli HS.
[8] abbreviates: source organism: Human herpesvirus 4 strain B95-8.
The mark [9] stands for this setting: source organism: Orthohantavirus hantanense.
The mark [10] stands for this setting: source organism: Cryptosporidium parvum.
Setting [11] is: source organism: Yersinia pestis Nepal516.
[12] abbreviates: source organism: Yersinia pestis.
Where [13] appears, read: source organism: human gammaherpesvirus 4.
Setting [14] is: source organism: Salmonella enterica subsp. enterica serovar Paratyphi B str. SPB7.

Some results are limits rather than exact numbers.

By Kd is commonly meant a measure of binding affinity in units of concentration. A higher Kd goes with lower affinity.

In the case of YLREHIRAM, the Kd is 0.006 µM with HLA-B*07:02 (source organism: Escherichia coli O157:H7); ≥ 20 µM with HLA-B*51:01; ≥ 20 µM with HLA-C*08:02; ≥ 20 µM with HLA-C*15:02; ≥ 5 µM in the assay with HLA-B*15:42 (setting [7]); ≥ 5 µM in the assay with HLA-B*45:06 (setting [7]). Also, the figures for the Kd in the assay with HLA-B*83:01 (setting [7]), in the assay with HLA-C*06:02 [1] and with HLA-C*14:02 were ≥ 5 µM, 0.0684 µM and 0.0018 µM, respectively.

As for RRRRRRAAL, the dissociation constant (Kd) was ≥ 5 µM with HLA-B*15:42 (setting [8]), ≤ 0.001 µM with HLA-B*27:20 (setting [8]), ≥ 5 µM with HLA-B*45:06 (setting [8]) and ≥ 5 µM with HLA-B*83:01 (setting [8]).

For the sequence LQYAIRSVF, the equilibrium dissociation constant (Kd) with HLA-B*15:01 (setting [9]) stood at 0.004 µM; in the assay with HLA-B*15:02 (source organism: Hantaan virus Q32) it was 0.008 µM; with HLA-B*46:01 (setting [9]), 1.95 µM.

For YRSGVPVEK, the Kd is 0.0619 µM with HLA-B*27:05 (source organism: Brucella abortus 2308), ≥ 20 µM with HLA-B*48:01 and ≥ 20 µM with HLA-B*73:01 [2].

For the sequence WLPWIPQLI, the dissociation constant (Kd) is ≥ 20 µM with HLA-A*01:01 (setting [10]); 1.24 µM in the assay with HLA-A*02:01 (setting [10]); ≥ 20 µM with HLA-A*03:01 (setting [10]); ≥ 20 µM with HLA-A*11:01 (setting [10]); 3.44 µM with HLA-A*24:03; ≥ 20 µM with HLA-A*26:01 (setting [10]). The Kd with HLA-A*31:01 (setting [10]) was ≥ 20 µM; with HLA-A*69:01 (setting [10]), 0.415 µM; with HLA-B*08:01, ≥ 20 µM; in the assay with HLA-B*15:01 (setting [10]) it was ≥ 5 µM; with HLA-B*27:05 (setting [10]) it was ≥ 20 µM; with HLA-B*35:01 (setting [10]), 16 µM. Also, the Kd in the assay with HLA-B*40:01 [3] (setting [10]) was ≥ 20 µM; with HLA-B*44:02 (setting [10]), ≥ 20 µM; with HLA-B*58:01 (setting [10]) it was ≥ 20 µM; in the assay with HLA-A*02:50 it was 0.0046 µM.

Take YRGGGQQHV: the dissociation constant Kd with HLA-B*73:01 [4] (source organism: Brucella abortus S19) is 3 µM.

Take WLWVSSSDM: the Kd with HLA-A*01:01 (setting [11]) was ≥ 20 µM; in the assay with HLA-A*02:01 (setting [12]), 1 µM; with HLA-A*02:19, 0.012 µM; in the assay with HLA-A*03:01 (setting [11]), ≥ 20 µM; with HLA-A*11:01 (setting [11]), ≥ 20 µM; with HLA-A*26:01 (setting [11]), ≥ 20 µM. For the same sequence, the dissociation constant Kd was ≥ 20 µM with HLA-A*31:01 (setting [11]); 0.114 µM with HLA-A*69:01 (setting [12]); ≥ 5 µM in the assay with HLA-B*07:02 (setting [12]); 1.37 µM with HLA-B*15:01 (setting [12]); 0.003 µM in the assay with HLA-B*15:02 (source organism: Yersinia enterocolitica subsp. enterocolitica 8081); ≥ 5 µM with HLA-B*27:05 (setting [12]). For the same sequence, the Kd with HLA-B*35:01 (setting [12]) was 0.0224 µM; with HLA-B*40:01 [3] (setting [11]), ≥ 20 µM; in the assay with HLA-B*44:02 (setting [11]) it was ≥ 20 µM; in the assay with HLA-B*46:01 (setting [11]), ≥ 20 µM; in the assay with HLA-B*58:01 (setting [11]), ≥ 20 µM.

For KEWCGNLIV, the Kd in the assay with HLA-B*73:01 [4] (source organism: Entamoeba histolytica) is ≥ 20 µM.

For TRYYWDIHL, the dissociation constant (Kd) with HLA-C*06:02 [5] amounted to 0.051 µM.

Turning to RRLHRLLLM, the Kd is ≥ 5 µM with HLA-B*15:42 (setting [13]), ≤ 0.0001 µM with HLA-B*27:20 (setting [13]), ≥ 5 µM in the assay with HLA-B*45:06 (setting [13]) and ≥ 5 µM with HLA-B*83:01 (setting [13]).

In the case of YESSHWLVV, the equilibrium dissociation constant (Kd) in the assay with HLA-B*15:42 (setting [14]) is ≥ 5 µM; with HLA-B*27:20 (setting [14]) it was 0.113 µM; with HLA-B*39:01, 0.0372 µM; with HLA-B*40:01 [6] it was 0.005 µM; with HLA-B*45:06 (setting [14]), ≥ 5 µM; in the assay with HLA-B*83:01 (setting [14]) it was ≥ 5 µM.

The values are drawn from the Immune Epitope Database (IEDB).
